# Residue numbers refer to the chain shown, from its start.
# B1: chimeric version of antibody 34 (antibody, V domains shown)
# VH: QVTLKESGPGILQPSQTLSLTCSFSGFSLSTFSLGVGWIRQSSGKGLEWLAHIWWDDEKYYNPALKSRLTISKDTSKNQVFLKIANVDAADTATYYCARAYYSKSYYALDYWGQGTSVTVSS
# VL: DIQMTQSPSSLSASLGERVSLTCRASQEISGYLSWLQQKPDGTIKRLIYAASTLDSGVPKRFSGSRSGSDYSLAISSLESEDFADYYCLQYANFPFTFGSGTKLEIK
# B2: chimeric version of antibody 16 (antibody, V domains shown)
# VH: QVTLKESGPGILQPSQTLSLTCSFSGFSLSTFALGVGWIRQPSGRGLEWLAHIWWDDDKYYNPALKSRLTISKDTSKNHVFLKIANVDTADTATYYCARITTYYYGMDYWGQGTSVTVSS
# VL: DIVLSQSPATLSVTPGDSVSLFCRASQSIGNHLHWYQQESHASPRLLIKYASQSISGIPSRFSGSGSGTDFTLSINSVETEDFGMYFCQQSYNWPLTFGAGTKLELK
# notes: Chimeric version made in CHO cells, detected with anti-human IgG; the variable domains are those of clone #16; also called ch16
# B3: chimeric version of antibody 22 (antibody, V domains shown)
# VH: QVTLKESGPGILQPSQTLSLTCSFSGFSLSTFGMGVGWIRQPSGKGLEWLAHIWWDDEKYYNSALKSRLTISKATSKNQVFLKIANVDTADTATYYCARISNYGSNYWYFNVWGTGTTVTVSS
# VL: QVVLTQSPALMSASPGEKVTMTCSAGSSVSYMYWYQQKPGSSPRVLIYDTSNLASGVPARFTGSGSGTSYSLTISRMEAEDAATYYCQQWNSYPLTFGAGTKLELK
# B4: chimeric version of antibody 44 (antibody, V domains shown)
# VH: B3 VH with G44E, E58D, S63P, A74D, V80I, A85T, D91E, A98S, S101G, N111D
# VL: B3 VL with V2I, L10V, S24T, G26S, S30Y, K38T, V45L, A59V, T62S, S92T
# B5: chimeric version of antibody 42 (antibody, V domains shown)
# VH: B3 VH with F24L, M34R, S63P, A74D, K83R, S101Q, N111D
# VL: LIVLTQSPAIMSASPGEKVTMTCGATSRISYMFWYQQKPGSSPRVLIYDTSNLASGVPVRFSGSGSGTSYSLTISRVEAEDVATYYCQQWNSYPLTFGAGTKLELK
# Biological target: T1, human iRhom2 (inactive rhomboid protein 2, isoform 1), endogenously expressed on human cells (human, UniProt Q6PJF5 1-856)
# T1 sequence: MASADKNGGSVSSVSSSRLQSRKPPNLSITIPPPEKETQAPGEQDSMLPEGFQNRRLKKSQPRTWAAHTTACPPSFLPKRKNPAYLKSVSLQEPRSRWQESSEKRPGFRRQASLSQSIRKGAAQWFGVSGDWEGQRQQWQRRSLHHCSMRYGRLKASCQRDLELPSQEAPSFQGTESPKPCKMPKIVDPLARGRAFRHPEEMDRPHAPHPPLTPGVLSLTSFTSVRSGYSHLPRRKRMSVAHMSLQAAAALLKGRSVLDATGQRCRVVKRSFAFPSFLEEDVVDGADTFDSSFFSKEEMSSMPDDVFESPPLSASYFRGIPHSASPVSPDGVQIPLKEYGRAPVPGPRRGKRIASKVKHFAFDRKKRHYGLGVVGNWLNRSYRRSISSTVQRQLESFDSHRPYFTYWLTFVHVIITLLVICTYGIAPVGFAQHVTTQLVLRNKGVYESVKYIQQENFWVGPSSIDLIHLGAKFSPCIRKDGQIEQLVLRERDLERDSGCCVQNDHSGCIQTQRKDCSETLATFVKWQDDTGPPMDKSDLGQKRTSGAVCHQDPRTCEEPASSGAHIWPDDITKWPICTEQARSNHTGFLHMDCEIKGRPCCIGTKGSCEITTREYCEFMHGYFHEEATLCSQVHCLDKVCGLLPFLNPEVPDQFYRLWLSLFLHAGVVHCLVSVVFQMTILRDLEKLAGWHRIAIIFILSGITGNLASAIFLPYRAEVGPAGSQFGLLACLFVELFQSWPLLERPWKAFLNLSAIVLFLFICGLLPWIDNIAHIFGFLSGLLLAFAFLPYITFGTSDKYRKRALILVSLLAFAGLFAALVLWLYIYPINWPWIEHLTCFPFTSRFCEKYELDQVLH
# Experiment: cell-based or functional assay
Binder,"inhibition of LPS-induced release of TNFα from PBMCs of rheumatoid arthritis patients, 1 µg/ml, chimeric antibody [% inhibition]","inhibition of PMA-induced release of HB-EGF from PBMCs of rheumatoid arthritis patients, 1 µg/ml, chimeric antibody [% inhibition]","inhibition of PMA-induced release of HB-EGF from THP-1 cells, 3 µg/ml [% inhibition]",inhibition of PMA-induced release of HB-EGF from U-937 cells [% inhibition],"inhibition of PMA-induced release of IL-6R from PBMCs of rheumatoid arthritis patients, 1 µg/ml, chimeric antibody [% inhibition]","inhibition of PMA-induced release of IL-6R from U-937 cells, 3 µg/ml [% inhibition]","inhibition of PMA-induced release of TNFα from U-937 cells, 3 µg/ml [% inhibition]"
B1,66.6,30.6,76.1,98.1,45.6,82.8,87.4
B2,83.6,66,73.6,101,72.3,84.3,93.7
B3,76.5,54.7,81.9,103,61.1,85.6,96.5
B4,70.2,37.8,70.7,99.2,53.1,85.2,89.2
B5,82.1,76.1,80.8,103,73.5,91.8,96.5

# Biological target: T2, dog iRhom2 full length wild type, C-terminally tagged with 3 consecutive copies of the T7 epitope (dog, UniProt Q00M95 1-827)
# T2 construct: whole, on cells; also called Dog-iR2-FL-WT-T7
# T2 sequence: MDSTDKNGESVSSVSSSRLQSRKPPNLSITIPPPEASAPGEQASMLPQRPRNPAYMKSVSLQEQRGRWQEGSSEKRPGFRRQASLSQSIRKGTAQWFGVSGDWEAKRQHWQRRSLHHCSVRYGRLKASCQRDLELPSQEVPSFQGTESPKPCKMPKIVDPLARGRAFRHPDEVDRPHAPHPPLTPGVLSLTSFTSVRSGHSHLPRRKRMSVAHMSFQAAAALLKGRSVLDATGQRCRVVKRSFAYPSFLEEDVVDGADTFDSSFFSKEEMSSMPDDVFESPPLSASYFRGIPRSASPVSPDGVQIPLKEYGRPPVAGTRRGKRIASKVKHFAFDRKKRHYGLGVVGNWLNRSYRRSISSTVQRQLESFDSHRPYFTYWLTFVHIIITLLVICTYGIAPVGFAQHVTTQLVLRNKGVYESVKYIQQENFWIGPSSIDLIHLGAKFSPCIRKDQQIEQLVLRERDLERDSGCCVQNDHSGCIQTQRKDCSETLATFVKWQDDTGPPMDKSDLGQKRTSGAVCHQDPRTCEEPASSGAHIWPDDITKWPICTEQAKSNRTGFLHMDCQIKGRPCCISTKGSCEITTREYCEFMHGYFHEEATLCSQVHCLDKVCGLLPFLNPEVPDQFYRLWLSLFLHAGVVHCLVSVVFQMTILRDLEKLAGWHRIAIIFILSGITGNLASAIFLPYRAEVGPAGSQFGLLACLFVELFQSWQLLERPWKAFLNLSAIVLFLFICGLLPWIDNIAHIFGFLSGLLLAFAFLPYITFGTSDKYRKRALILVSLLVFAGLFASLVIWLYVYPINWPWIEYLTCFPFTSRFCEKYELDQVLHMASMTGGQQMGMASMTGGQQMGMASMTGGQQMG
# Experiment: FACS on MEF-DKO-iR2 Dog cells, 3 µg/ml
# Procedure: In brief, immortalized MEF-DKO-EV control cells, MEF-DKO-rhesus-iR2-FL-WT-T7 cells, MEF-DKO-cyno-iR2-FL-WT-T7 cells, MEF-DKO-dog-iR2-FL-WT-T7 cells and MEF-DKO-rabbit-iR2-FL-WT-T7 cells, as well as their respective iRhom1 counterparts, were harvested with 10 mM EDTA in PBS, washed and resuspended in FACS buffer (PBS, 3% FBS, 0.05% sodium azide), and seeded in Nunc U-bottom 96-well plates (Thermo Fisher Scientific, USA) at approximately 3×10⁵ cells per well. To pellet cells and remove supernatants, the plates were centrifuged at 1,500 rpm and 4° C. for 3 minutes. For primary staining, cells were resuspended in 100 μl per well of either FACS buffer alone (controls), mouse monoclonal anti-T7 IgG (Merck Millipore, USA) at 3 μg/ml FACS buffer or the antibodies of the present disclosure also at 3 μg/ml FACS buffer and incubated on ice for 1 hour. Afterwards, plates were centrifuged at 1,500 rpm and 4° C. for 3 minutes and washed twice with 200 μl per well of FACS buffer. For secondary staining, cells were spun down and resuspended in 100 μl per well of PE-conjugated goat anti-mouse IgG F(ab′)2 detection fragment (Dianova, Germany) diluted 1:100 in FACS buffer. Protected from light, the cell suspensions were incubated on ice for 1 hour. […] Finally, cells were resuspended in 150 μl per well of FACS buffer and analyzed using a BD Accuri™ C6 Plus flow cytometer (Becton Dickinson, Germany).
row,Binder,binding result
1,B2,binds

# Biological target: T3, human iRhom1, endogenously expressed on RH-30 cells (human, UniProt Q96CC6 1-855)
# T3 construct: RH-30 cells are described as endogenously negative for iRhom2 but endogenously expressing iRhom1; also called NP_071895.3
# T3 sequence: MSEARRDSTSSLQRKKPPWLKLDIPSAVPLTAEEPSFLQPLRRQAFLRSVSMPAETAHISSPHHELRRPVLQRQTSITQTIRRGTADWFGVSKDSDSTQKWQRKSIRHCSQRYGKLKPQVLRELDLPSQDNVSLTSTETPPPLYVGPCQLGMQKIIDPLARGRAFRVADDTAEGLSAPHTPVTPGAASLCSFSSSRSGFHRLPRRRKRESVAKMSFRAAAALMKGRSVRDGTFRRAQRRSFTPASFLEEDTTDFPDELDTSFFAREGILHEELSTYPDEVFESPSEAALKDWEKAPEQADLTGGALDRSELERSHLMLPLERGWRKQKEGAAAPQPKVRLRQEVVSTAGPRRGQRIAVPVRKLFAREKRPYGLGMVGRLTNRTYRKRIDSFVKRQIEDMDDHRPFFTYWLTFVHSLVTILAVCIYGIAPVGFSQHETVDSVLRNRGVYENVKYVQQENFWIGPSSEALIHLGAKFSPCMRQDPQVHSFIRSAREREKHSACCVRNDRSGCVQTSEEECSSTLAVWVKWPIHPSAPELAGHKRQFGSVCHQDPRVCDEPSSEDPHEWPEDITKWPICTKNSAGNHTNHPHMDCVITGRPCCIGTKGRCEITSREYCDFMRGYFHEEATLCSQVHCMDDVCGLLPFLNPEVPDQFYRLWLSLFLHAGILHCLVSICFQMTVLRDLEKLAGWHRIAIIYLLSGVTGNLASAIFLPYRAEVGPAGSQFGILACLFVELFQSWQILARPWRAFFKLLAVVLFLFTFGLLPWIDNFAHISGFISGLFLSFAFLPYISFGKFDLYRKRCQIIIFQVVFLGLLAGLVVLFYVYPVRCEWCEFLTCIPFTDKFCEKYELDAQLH
# Experiment: FACS on RH-30 cells (iRhom1-positive, not iRhom2-positive)
row,Binder,binding result
1,B2,no binding (tested: 3 µg/ml)
